Biological target: the molecule itself
Test: SEC

Row | Protein | stoichiometry N
1 | FasR from Mycobacterium tuberculosis, full-length (hexa-histidine-TEV-tagged construct, tag cleaved) (natural protein) MSDLAKTAQRRALRSSGSARPDEDVPAPNRRGNRLPRDERRGQLLVVASDVFVDRGYHAAGMDEIADRAGVSKPVLYQHFSSKLELYLAVLHRHVENLVSGVHQALSTTTDNRQRLHVAVQAFFDFIEHDSQGYRLIFENDFVTEPEVAAQVRVATESCIDAVFALISADSGLDPHRARMIAVGLVGMSVDCARYWLDADKPISKSDAVEGTVQFAWGGLSHVPLTRS | 2
2 | His-tagged FasR (FasRwt, from pET28_fasRH) (natural protein, not shown: His6, N-terminal, kept) MSDLAKTAQRRALRSSGSARPDEDVPAPNRRGNRLPRDERRGQLLVVASDVFVDRGYHAAGMDEIADRAGVSKPVLYQHFSSKLELYLAVLHRHVENLVSGVHQALSTTTDNRQRLHVAVQAFFDFIEHDSQGYRLIFENDFVTEPEVAAQVRVATESCIDAVFALISADSGLDPHRARMIAVGLVGMSVDCARYWLDADKPISKSDAVEGTVQFAWGGLSHVPLTRS | 2
